From the RNAGym collection of RNA variant scans (doi:10.1021/acssynbio.7b00057) come the findings set out here.

The labels stand for the following.
B1: Pistol ribozyme (parent)
chain: GGGUCGUUGUUCCAUAAUCGCGUGGAUAUGGCACGCAAGUUUCUACCGGGCACCGUAAAUGUCCGACUGGAGCCGUUCGGGCGGCUAUAAACAGACCUCAGGCCCGAAGCGUGGCGGCACCUGCCGCCGGUGGUAAAAAAGAUCGGAAGAGCACACGUCU

The variants in this series derive from B1. The series is described as follows: aptazyme ON/OFF ratio, guanine; higher = stronger switching; co-transcriptional cleavage with and without guanine.
In the case of U7G G9U U10G U11C C12G, the “aptazyme ON/OFF ratio” value came to 1.48.

U7A U8A U10C U11C C12A: the “aptazyme ON/OFF ratio” value came out at 1.17.

For U7G G9C C12G, the “aptazyme ON/OFF ratio” value came to 1.91.

Consider U8A G9C U10A U11G C12A, for which the “aptazyme ON/OFF ratio” value was found to be 1.06.

Take U8G G9C U10A U11A C12G C13G: the “aptazyme ON/OFF ratio” value amounted to 1.18.

As for U7C U8A G9U U10A C13G, the “aptazyme ON/OFF ratio” value is 1.05.

As for U7C U8C G9A U10G U11A C12U, the “aptazyme ON/OFF ratio” value stood at 1.11.

In the case of U7A U8A U11A C12U, the “aptazyme ON/OFF ratio” value worked out at 1.31.

Consider U7C U10G U11A C12U C13A, for which the “aptazyme ON/OFF ratio” value stood at 1.19.

Consider U7G G9A U10C U11C C12G C13U, for which the “aptazyme ON/OFF ratio” value came to 1.03.

Turning to U8G G9C U11G C12U C13A, the “aptazyme ON/OFF ratio” value worked out at 1.1.

As for U7G G9C U10A U11C C12G C13G, the “aptazyme ON/OFF ratio” value is 1.06.

For U8A G9A U10G C12U, the “aptazyme ON/OFF ratio” value turned out to be 1.5.

Turning to U7A U11G C13U, the “aptazyme ON/OFF ratio” value is 1.04.

With U7C G9U U10A U11A C13G, the “aptazyme ON/OFF ratio” value was 1.04.

G9A U11A C12G C13U: the “aptazyme ON/OFF ratio” value amounted to 1.41.

Turning to U8C G9U U10C U11C C12U C13A, the “aptazyme ON/OFF ratio” value was 1.07.

As to U7C U11G C12U, the “aptazyme ON/OFF ratio” value stood at 1.26.

U7A U8A G9U U10A U11C C13A: the “aptazyme ON/OFF ratio” value worked out at 1.08.

As to U7C U10A C13G, the “aptazyme ON/OFF ratio” value worked out at 1.05.

Turning to U7C U8G U10G U11A C12U C13U, the “aptazyme ON/OFF ratio” value came out at 1.23.

In the case of U7C U8G U11G C12A C13G, the “aptazyme ON/OFF ratio” value was 1.08.

Regarding U7A G9A U10C U11G C13G, the “aptazyme ON/OFF ratio” value was 1.19.

U7C U8C G9C U10G U11C C12U C13A: the “aptazyme ON/OFF ratio” value worked out at 1.07.

U7G U10C U11G C12A C13G: the “aptazyme ON/OFF ratio” value was found to be 1.07.

As to U8C U10A U11A C12G C13U, the “aptazyme ON/OFF ratio” value amounted to 1.28.

Regarding U7G U8A G9A U10C U11A C13G, the “aptazyme ON/OFF ratio” value was found to be 1.07.

Regarding U8C U10C C12A C13A, the “aptazyme ON/OFF ratio” value was 1.33.

As for U7C U8A G9C U10G U11G C12G C13U, the “aptazyme ON/OFF ratio” value worked out at 1.09.

Regarding U8C G9U U10G U11A C12G C13U, the “aptazyme ON/OFF ratio” value came to 1.12.

Turning to U7C U8A G9U U11G, the “aptazyme ON/OFF ratio” value is 1.21.

Turning to U8G U10C C12G C13A, the “aptazyme ON/OFF ratio” value was found to be 1.13.

With U7C G9A U10A, the “aptazyme ON/OFF ratio” value was 1.88.

Take U7C U10G C12A: the “aptazyme ON/OFF ratio” value came out at 1.11.

Turning to G9U U10A U11G C12U C13U, the “aptazyme ON/OFF ratio” value is 1.7.

U7C U8G U10G U11A C12G C13G: the “aptazyme ON/OFF ratio” value turned out to be 1.21.

U7A G9A U11A C12G C13G: the “aptazyme ON/OFF ratio” value came to 1.16.

Take U7A U8G G9A U11A C13U: the “aptazyme ON/OFF ratio” value came to 1.55.

As for U7A U8G G9A U10G U11C C12U C13A, the “aptazyme ON/OFF ratio” value was 1.32.

With U7C U10A C12G C13U, the “aptazyme ON/OFF ratio” value worked out at 1.23.

As to U7C U8G G9A C12G, the “aptazyme ON/OFF ratio” value came to 1.29.

As to U8G G9A U10A U11C C12G, the “aptazyme ON/OFF ratio” value came out at 1.23.

Turning to U7A U8C G9U C12U, the “aptazyme ON/OFF ratio” value was 1.33.

With U7G G9U U10A U11A C12U C13A, the “aptazyme ON/OFF ratio” value stood at 0.962.

U7C U8G G9U U10A U11G C12G C13U: the “aptazyme ON/OFF ratio” value came out at 1.19.

Regarding U7A U8C U10C U11G C12A, the “aptazyme ON/OFF ratio” value turned out to be 1.2.

In the case of U7A U8G G9U U10C U11G C12A C13U, the “aptazyme ON/OFF ratio” value came to 1.45.

For U7G U8G G9C U10A C12A C13U, the “aptazyme ON/OFF ratio” value came to 1.04.

In the case of U7C U8A G9C C12A C13U, the “aptazyme ON/OFF ratio” value was determined as 1.15.

U7A U8A G9U: the “aptazyme ON/OFF ratio” value amounted to 2.12.

Take U7C U8C G9U U10C U11C C13A: the “aptazyme ON/OFF ratio” value is 1.02.

Turning to U7G U8G G9U U10C U11G C12A C13U, the “aptazyme ON/OFF ratio” value stood at 1.28.

On to U7A U8C G9U U11C C12A C13U, for which the “aptazyme ON/OFF ratio” value was 1.2.

As for U7C U8G G9A U11G C12U C13U, the “aptazyme ON/OFF ratio” value turned out to be 1.27.

As to G9A U10G C12U, the “aptazyme ON/OFF ratio” value came to 1.82.

On to U7C U8A G9C U10G U11G C12A, for which the “aptazyme ON/OFF ratio” value was determined as 1.23.

In the case of U7C U8A G9U U10C C13A, the “aptazyme ON/OFF ratio” value worked out at 1.05.

U7G U8C U10C C12A C13G: the “aptazyme ON/OFF ratio” value is 1.16.

With U7C U8A G9C U10G U11C C12U, the “aptazyme ON/OFF ratio” value worked out at 1.24.

With G9A U10C U11A, the “aptazyme ON/OFF ratio” value was 2.25.

As to U7C U8A U10G C12A C13U, the “aptazyme ON/OFF ratio” value worked out at 1.27.

On to U7A U8C U10G C12U, for which the “aptazyme ON/OFF ratio” value turned out to be 1.27.

Regarding U8C G9U U10G U11C C12U, the “aptazyme ON/OFF ratio” value turned out to be 1.04.

On to U7C G9C U10A U11C C12U C13A, for which the “aptazyme ON/OFF ratio” value worked out at 1.04.

For the variant U7G U8C U10G U11G C13G, the “aptazyme ON/OFF ratio” value amounted to 1.26.

Take U7C U8A G9C U11C C12G: the “aptazyme ON/OFF ratio” value was found to be 1.11.

As for U7G U8C G9A U10A U11A C12G C13G, the “aptazyme ON/OFF ratio” value is 1.13.

On to U7A U8A G9C U11A C12A C13G, for which the “aptazyme ON/OFF ratio” value came out at 1.18.

As for U7A U8G G9U U11C C13G, the “aptazyme ON/OFF ratio” value was 1.06.

As to U7A U8G G9A U10C U11A C13U, the “aptazyme ON/OFF ratio” value stood at 1.2.

For the variant U7A U8G G9A U10C U11A C13G, the “aptazyme ON/OFF ratio” value was 1.1.

For U7G U8A U11A C12G, the “aptazyme ON/OFF ratio” value was found to be 1.22.

For the variant U7A U8G G9C U11A C12G C13G, the “aptazyme ON/OFF ratio” value turned out to be 1.35.

As for U7G G9U U10C C12U, the “aptazyme ON/OFF ratio” value is 1.51.

In the case of U7A U8G G9U U10G U11C C12U C13G, the “aptazyme ON/OFF ratio” value is 1.47.

Consider U7C G9C U10G U11G C12A C13U, for which the “aptazyme ON/OFF ratio” value came to 1.09.

For U7C U8G G9A U11G C13G, the “aptazyme ON/OFF ratio” value turned out to be 1.03.

On to U7C G9U U10A U11C C12U C13U, for which the “aptazyme ON/OFF ratio” value was found to be 1.29.

With U8G U10A U11C C12U, the “aptazyme ON/OFF ratio” value was determined as 1.03.

U7G U8C G9A U10A U11G C13U: the “aptazyme ON/OFF ratio” value came to 1.23.

For the variant U7A U8G U10C U11G C12G, the “aptazyme ON/OFF ratio” value is 1.33.

As to U8C G9C U10C C12U, the “aptazyme ON/OFF ratio” value came out at 1.07.

For U7A U8G U10C U11A C12G C13A, the “aptazyme ON/OFF ratio” value came to 1.22.
